Substrate in the data set: O=[N+]([O-])c1ccc(O[C@@H]2O[C@H](CO)[C@@H](O)[C@H](O)[C@H]2O)cc1
Put plainly: purified protein. The settings on record: free enzyme, 2–16 mM p-NPG, 50 mM NaAc-HAc buffer, 40 °C.

B1: β-glucosidase (BG), his-tagged (Coptotermes formosanus) (protein)
chain: DDVDNDTLVTFPDDFKLGAATASYQIEGGWDADGKGPNIWDTLTHERPHLVVDRSTGDVADDSYHLYLEDVRLLKDMGAEVYRFSISWARILPEGHDNNVNEAGIEYYNKLIDALLRNGIEPMVTMYHWDLPQKLQDLGGWPNRILAKYAENYARVLFSNFGDRVKQWLTFNEPLTFMDAYASDTGMAPSVDTPGIGDYLTAHTVILAHANIYRLYEREFREEQQGQVGIALNIHWCEPETGSPKDVEACERYQQFNLGIYAHPIFSENGDYPSVLKARVDANSASEGYTTSRLPKFTPEEVAFVNGTYDFLGLNFYTAVVGRDGVEGEPPSRYRDMGTITSQDPEWPESASSWLRVVPWGFRKELNWIANEYGNPPIFITENGFSDYGGVNDTNRVLYYTEHLKEMLKAIHIDGVNVIGYTAWSLIDNFEWLRGYTERFGIHAVNFIDPSRPRTPKESARVLTEIFKTRQIPERFRD
For the protein B1, the Km turned out to be 4.2 ± 0.3 mM, the kcat was 58.8 s⁻¹ and the kcat/Km was 14000 M⁻¹ s⁻¹.

Broadly, the Km is the concentration of substrate that gives half-maximal velocity. In general, kcat refers to the maximal rate divided by the concentration of active sites. The kcat/Km is the turnover number divided by the Michaelis constant.

These data come from PMC5278371.
